The target in the experiment is human carcinoembryonic antigen-related cell adhesion molecule 1 (CEACAM1) (human) (UniProt P13688). Description: cell-based or functional assay.

The values below come from patent US20260167717A1.

Sequence of UniProt P13688 (P13688 35-526): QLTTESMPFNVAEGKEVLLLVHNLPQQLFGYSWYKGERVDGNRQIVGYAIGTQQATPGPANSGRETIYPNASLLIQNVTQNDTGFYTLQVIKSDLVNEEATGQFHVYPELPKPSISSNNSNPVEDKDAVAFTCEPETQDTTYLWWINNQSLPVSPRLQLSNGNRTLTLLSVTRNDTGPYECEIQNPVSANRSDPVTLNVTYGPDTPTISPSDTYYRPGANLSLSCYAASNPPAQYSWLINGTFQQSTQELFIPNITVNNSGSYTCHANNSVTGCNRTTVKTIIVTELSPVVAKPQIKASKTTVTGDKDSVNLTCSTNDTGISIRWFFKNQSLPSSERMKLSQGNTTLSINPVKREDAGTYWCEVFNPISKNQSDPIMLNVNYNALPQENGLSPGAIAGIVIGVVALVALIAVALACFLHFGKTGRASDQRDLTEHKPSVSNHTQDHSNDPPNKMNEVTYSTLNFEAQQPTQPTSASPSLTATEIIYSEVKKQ

B1: CM24, humanized IgG4 anti-CEACAM1 monoclonal antibody (antibody, V domains shown)
VH: QVQLVQSGAEVKKPGASVKVSCKASGYAFTNNLIEWVRQAPGQGLEWIGVINPGSGDTNYNEKFKGRVTMTADKSISTAYMELSRLRSDDTAVYYCARGDYYGGFAVDYWGQGTTVTVSS
VL: DIQMTQSPSSLSASVGDRVTITCRTSQDIGNYLNWYQQKPGKAVKLLIYYTSRLHSGVPSRFSGSGSGTDYTLTISSLQPEDIATYFCQQGKSLPRTFGGGTKVEIKR
Turning to B1, the % Inhibition of NET-induced migration (vs. isotype control), human NSCLC A549 worked out at 82.7%; the % Inhibition of NET-induced migration (vs. isotype control), human PDAC AsPC-1 worked out at 49.1%; the % Inhibition of NET-induced migration (vs. isotype control), human melanoma SKMEL-28 came out at 69.5%; the ADP-induced platelet aggregation, mean (ADP + CM24, 500 µg/ml, 30 min pretreat) was found to be 721 AUC. For the same molecule, the AUC of cell count, NET-induced migration of AsPC-1 cells (CM24 + NETs, 500 µg/ml) amounted to 30600 AUC; the Mean AUC of cell count, NET-induced migration of A549 cells (CM24 + NETs, 500 µg/ml) turned out to be 6580 AUC; the Mean AUC of cell count, NET-induced migration of SKMEL-28 cells (CM24 + NETs, 500 µg/ml) was determined as 2950 AUC; the Norm. AUC of cell count, NET-induced migration of A549 cells (CM24 + NETs, 500 µg/ml) was 2170 AUC. In addition, the Norm. AUC of cell count, NET-induced migration of AsPC-1 cells (CM24 + NETs, 500 µg/ml) amounted to 9410 AUC; the Norm. AUC of cell count, NET-induced migration of SKMEL-28 cells (CM24 + NETs, 500 µg/ml) was determined as 1640 AUC; the Percentage platelet aggregation at 30 min, fresh NETs 5 ng/µl, 500 µg/ml CM24 was -5.3%; the Percentage platelet aggregation at 30 min, fresh NETs 10 ng/µl, 500 µg/ml CM24 worked out at 11.5%. Besides, the Platelet aggregation with fresh NETs 5 ng/µl, mean AUC (% aggregation versus time), 500 µg/ml CM24 was 179 AUC; the Platelet aggregation with fresh NETs 10 ng/µl, mean AUC (% aggregation versus time), 500 µg/ml CM24 worked out at 377 AUC; the Reduction of NET-induced platelet aggregation vs. isotype control, 5 ng/µl fresh NETs was determined as 70%; the Reduction of NET-induced platelet aggregation vs. isotype control, 10 ng/µl fresh NETs amounted to 53%.
